Measured values published in PMC3014449 (2010).
Positions of bridges follow the written chain, without caps; N, C: chain ends. Non-standard residues stand in square brackets, D forms with d. Trp(1-Me) = Cn1cc(C[C@H](N)C(=O)O)c2ccccc21; NMeI = CC[C@H](C)[C@H](NC)C(=O)O; Sar = CNCC(=O)O

Molecular target: C3b C3b (Homo sapiens, UniProt P01024)
Test: SPR

Chain of C3b C3b (P01024 566-670): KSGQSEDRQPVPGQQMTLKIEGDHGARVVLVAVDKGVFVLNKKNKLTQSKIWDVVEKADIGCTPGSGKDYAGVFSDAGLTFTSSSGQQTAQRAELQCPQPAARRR

Kd: 2.3 nM
B1: compstatin analogue 21 (peptide)
chain: Ac-ICV[Trp(1-Me)]QDW[Sar]AHRC[NMeI]-NH2
modifications: disulfide 2-12
SMILES: CC[C@H](C)[C@H](NC(C)=O)C(=O)N[C@H]1CSSC[C@@H](C(=O)N(C)[C@H](C(N)=O)[C@@H](C)CC)NC(=O)[C@H](CCCNC(=N)N)NC(=O)[C@H](Cc2c[nH]cn2)NC(=O)[C@H](C)NC(=O)CN(C)C(=O)[C@H](Cc2c[nH]c3ccccc23)NC(=O)[C@H](CC(=O)O)NC(=O)[C@H](CCC(N)=O)NC(=O)[C@H](Cc2cn(C)c3ccccc23)NC(=O)[C@H](C(C)C)NC1=O
